Laboratory results reported in the RNAGym collection of RNA variant scans (doi:10.1073/pnas.2313332121).

B1: TPR t1 (parent)
chain: GACCAAUCUGCCCUCAGAGCUCGAGAACAUCUUCGGAUGCAGAGGAGGCAGGCUUCGGUGGCGCGAUAGCGCCAACGUCCUCAACCUCCAAUGCAUCCCACCACAUGAUGAUGCCUGAAGAGCCUUGGUUUUUUG

Variants of: B1
Assay: polymerase ribozyme fitness, log enrichment relative to wild type (log ratio); higher = more active; in vitro selection for triplet polymerase activity
Method in brief: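 After PCR construction and transcription, each subunit's mutant library from a heterodimeric triplet polymerase ribozyme was annealed with a biotinylated primer, the partner subunit and triplets. Incubation was frozen, at −7 °C, and extended constructs were gel-excised, bound to streptavidin beads and amplified by RT-PCR, in one selection round done in triplicate. Fitness is the logarithm of a genotype's enrichment divided by that of the wild type, from inverse-variance-weighted replicate averages of Illumina-sequenced inputs and outputs. The base of the logarithm is 2, and genotypes needed ≥10 input reads and ≥1 read per output.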

| Variant | polymerase ribozyme fitness (log ratio) |
| --- | --- |
| C15U U21C G110A U130G | -4.32 |
| A16G C72G U129G | -2.89 |
| A16C G61C C88U | -4.85 |
| A16U G63A | -2.16 |
| G17A G39A C79U G110C | -7.24 |
| A16C G44C C73A C86U G120U | -2.98 |
| C15U U54A U59A C80A C82G C123U | -3.3 |
| A16U G52U A111C U126G G127U | -2.8 |
| A16U G42A | -3.84 |
| A16U C53A A66C | -2.72 |
| A16C C22U | -5.8 |
| A16U A26U | -4.8 |
| A16G C70U C82G | -2.05 |
| A16C C124G | 1 |
| G17C G42U C94U U106A | -5.2 |
| C15U G60A G128A | -2.6 |
| A16U G69U C89U | -1.47 |
| G17A G113A | -3.43 |
| G17A G113U | -3.81 |
| A16C C62U A83C C88G | -2.71 |
| A16U C72U | -1.94 |

| Variant | polymerase ribozyme fitness (log ratio) |
| --- | --- |
| C15U G60A A91C | -2.6 |
| G17A A41C A43U G44C | -5.92 |
| G17A G122A | -3.37 |
| A16U G17U C124A | -1.9 |
| A16U C89G C123G | -1.67 |
| A16U C49A A121U U129G | -0.0419 |
| A16C A83C U106C C115U U125C | -2.38 |
| G17A C72U A90U A121G | 0.0637 |
| G17C C28U C85A G110A G120C | -2.19 |
| A16U G47U G69C | -3.2 |
| A16C G45U | -4.66 |
| G17A G48C C49G A84U C124U | -2.52 |
| G17A U59C G69U G120U | -2.26 |
| A16U C20A C62U A83C G120A | -6.31 |
| A16G G51C | -5.21 |
| G17A A90C A95G C104U A119U | -3 |
| A16U G36C C62A A121C | -1.88 |
| G17A G48A A95C U112A C114A | -6.73 |
| G17A C22A | -5.66 |
| A16C G69U | -1.81 |
| A16U C89G U130C | -2.31 |

| Variant | polymerase ribozyme fitness (log ratio) |
| --- | --- |
| A16U U81A | -2.6 |
| A16U U81G | -5.13 |
| A16G G45A C80G C114U | -5.91 |
| G17A U78C C94U | -3.74 |
| G17C A83C A119G | -1.01 |
| G17C C20A A43C C123A U129G | -3.55 |
| G17A A27C G57C C73A G93U G113C A118C U125A | -7.69 |
| G17C C20A | -5.15 |
| A16U G113A C123U | -4.77 |
| A16C A27G G61A U112C | -1.49 |
| A16G A91U G113U | -2.28 |
| A16C C70U | -3.17 |
| G17C A26C A29G C62A G63U | -5.05 |
| A16U A83U U112G C115A | -4.6 |
| A16G C72G | -1.66 |
| A16G U129G | -3.64 |
| C15U G93U | -2.38 |
| A16U U59G | -1.3 |
| A16U U59A | 0.971 |
| A16U C72G C104U | -1.7 |
| A16G C62A C97U | -3.6 |

| Variant | polymerase ribozyme fitness (log ratio) |
| --- | --- |
| C15U U21A A100C U109C G117U U130A | -6.66 |
| C15U U106A | -1.69 |
| A16U C53G | -1.82 |
| G17A G39U | -3.39 |
| A16G G39A C115A | -2.22 |
| G17A G44U C49U U55G | -4.05 |
| A16U C72A U131C | -1.73 |
| A16G C49G G51U C86A U126C | -4.58 |
| A16C A90C | -4.52 |
| G17A G25A G51C C53G A111C | -6.66 |
| A16G G61A A74C U78G U112A | -4.17 |
| A16U C70U | -1.98 |
| A16U A41G G44A G117C | -4.44 |
| C15U G58A C79U | -2.08 |
| A16G C40G C124A | 0.0509 |
| G17C A18C A43U C89U | -2.92 |
| C15U G61U A91G A121C U126A | -4.05 |
| A16U U133G | -2.05 |
| A16U C28U G71U | -3.34 |
| A16U C40A U54C G60A | -2.69 |
